Consider one molecule from article PMC5529482, “Novel strategies to mimic transmembrane tumor necrosis factor-dependent activation of tumor necrosis factor receptor 2” (Scientific Reports, 2017).

This assay has as its target T1, mouse TNFR2-Fc fusion protein (mouse, UniProt P25119 23-258).
T1 construct: mouse TNF receptor 2 (TNFR2)
T1 sequence (looked up): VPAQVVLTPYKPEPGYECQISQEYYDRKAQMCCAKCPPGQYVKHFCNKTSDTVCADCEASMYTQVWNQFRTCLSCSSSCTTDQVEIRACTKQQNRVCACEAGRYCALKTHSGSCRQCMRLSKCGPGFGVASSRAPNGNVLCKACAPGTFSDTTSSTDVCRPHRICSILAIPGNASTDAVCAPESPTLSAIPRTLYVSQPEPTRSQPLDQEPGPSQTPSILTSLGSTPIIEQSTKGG
In words: ELISA; TNFR1-Fc or TNFR2-Fc coated at 1 µg/ml in PBS, 4 °C overnight; TNF muteins in 2% skim milk powder in PBS, 1 h RT; detected with anti-TNF clone F6C5 and HRP anti-mouse IgG. The note with it: both partners purified.

B1: GCN4-sc-mTNFR2 (ligand)
chain: not shown
Molecule B1 showed an EC50 of 0.045 nM.
